The target of assay [1] is T1, HAdV-C5 hexon (Human adenovirus C serotype 5, UniProt P04133).
T1 construct: the top phase containing soluble viral components was recovered, and HAdV hexons were purified using monoclonal hexon antibodies; made in house; host or cells: A549 cells infected with wild-type HAdV-C5 (strain Ad75)
Nature of the assay: Surface plasmon resonance, HAdV-C5 hexon immobilized. The format is binding. The protocol:
(§1) Ten flasks of 70% confluent A549 cells were infected with HAdV-C5, HAdV-A31, or HAdV-B35. After initial inoculation, unbound virus was washed away, and approximately 30 ml of fresh medium (DMEM plus 20 mM HEPES [N-2-hydroxyethylpiperazine-NN-2-ethanesulfonic acid] plus 5% FBS) was added. At 48 h after infection, the cells were harvested by scraping into a small volume of DMEM, centrifuged, and resuspended in 6 ml of DMEM. The collected cells were lysed and the sample cleared by centrifugation. Virus was separated from soluble viral components by a CsCl gradient, as described previously ([59]). After ultracentrifugation, the top phase containing soluble viral components was recovered, and HAdV hexons were purified using monoclonal hexon antibodies (MAB8052) covalently attached to magnetic protein A/G beads (Pierce) using dimethyl pimelimidate (DMP) according to the manufacturer’s instructions. Bound hexons were washed three times using PBS to remove protein bound unspecifically, followed by elution in 50 μl of 200 mM glycine buffer at pH 2.5.
(§2) CM5 sensor chips, an amine-coupling kit, and HBS-EP+ buffer (10 mM HEPES, 150 mM NaCl, 3 mM EDTA, and 0.005% [vol/vol] surfactant P20 [pH 7.4]) were all purchased from GE Healthcare. All surface plasmon resonance (SPR) experiments were performed at 25°C in HBS-EP+ running buffer with adenovirus hexons immobilized on the sensor surface. In addition, all experiments were performed with the same batch of LF/Lfcin. Data were collected with a Biacore T200 instrument at a rate of 1 Hz. HAdV hexons were coupled to the CM5 sensor chip by amine coupling reactions according to the manufacturer’s instructions, aiming for an immobilization density of 900 to 1,100 resonance units (RU). The surface of the upstream flow cell was used as a reference and was subjected to the same coupling reaction in the absence of protein. The analytes were serially diluted in running buffer to prepare a 2-fold concentration series ranging from 8 nM to 2 μM and then injected in series over reference and experimental biosensor surfaces for 120 sec at a flow rate of 30 μl/min. Blank samples containing only running buffer were also injected under the same conditions to allow for double referencing. After each cycle, the biosensor surface was regenerated with a 60-sec pulse of 10 mM Tris-glycine (pH 1.5) at a flow rate of 30 μl/min.

Assay [2] addresses HAdV-B35 hexon. Nature of the assay: Surface plasmon resonance, HAdV-B35 hexon immobilized. The format is binding. The protocol:
as §1, §2
Background: In SPR one partner is held on a chip, and binding of the other changes the refractive index at the surface.

Assay [3] deals with HAdV-A31 hexon. Nature of the assay: Surface plasmon resonance, HAdV-A31 hexon immobilized. In kind it is binding. The note with it: analyte hLF, HBS-EP+ pH 7.4, 25°C, average from three independent measurements. The protocol: as §1
CM5 sensor chips, an amine-coupling kit, and HBS-EP+ buffer (10 mM HEPES, 150 mM NaCl, 3 mM EDTA, and 0.005% [vol/vol] surfactant P20 [pH 7.4]) were all purchased from GE Healthcare. All surface plasmon resonance (SPR) experiments were performed at 25°C in HBS-EP+ running buffer with adenovirus hexons immobilized on the sensor surface. In addition, all experiments were performed with the same batch of LF/Lfcin. Data were collected with a Biacore T200 instrument at a rate of 1 Hz. HAdV hexons were coupled to the CM5 sensor chip by amine coupling reactions according to the manufacturer’s instructions, aiming for an immobilization density of 900 to 1,100 resonance units (RU). The surface of the upstream flow cell was used as a reference and was subjected to the same coupling reaction in the absence of protein. […]

In assay [4] the test system is human respiratory epithelial A549 cells (HAdV-C5_GFP). Nature of the assay: HAdV-C5_GFP transduction of A549 cells. The format is cell-based. An excerpt:
For all transduction experiments, GFP-expressing vectors were used. The HAdV_GFP vector was purchased from Vector Development Laboratory. All mutated HAdV-C5 vectors were generated in the laboratory of A. Plückthun at the University of Zürich using the AdEasy system (Agilent) to contain an internal ribosome entry site (IRES)-luciferase (Luc)-GFP cassette for detection of transduction. To investigate the role of integrins in transduction, HAdV-C5-IRES-GFP with an intact RGD loop in the penton base protein (-DMNDHAIRGDTFATRAE-) and HAdV-C5-ΔRGD-IRES-GFP (-DMNDTSRAEEKRAE-), known not to bind integrins ([40]), were generated. To determine the binding site for hLF/hLfcin on the hexon protein, hexon-mutated vectors were produced with HVR-1 of HAdV-C5 ([43]) replaced with the corresponding sequence of HAdV-A31, as well as a HAdV-C5 vector mutated in HVR-7 ([44]).
For experiments in A549 cells, 15,000 cells were seeded into a black 96-well plate with a transparent bottom. For experiments with CHO-K1 cells, 20,000 cells were seeded. After 24 h, HAdV-C5 vectors was complexed with 2 μM Lfcin or with ∼12 μM (1 mg/ml) of LF and, after 60 min, added to the cells on ice. The blocking of CAR using soluble HAdV-C5 fiber knob was performed using 10 μg/ml of recombinant knob. After another 60 min, unbound complex was washed away using Dulbecco’s modified Eagle’s medium (DMEM), followed by final addition of fresh medium. After 44 h, the cells were fixed using 4% paraformaldehyde (PFA) for 10 min, and GFP expression was imaged using a Trophos system (Luminy Biotech Entreprises). For the hexon chimeric viruses, transduction was instead quantified by measuring the luciferase activity at 44 h postinfection using a Pierce luciferase glow assay kit.

In assay [5] the test system is epithelial and T cells (species C HAdVs). The following applies: ref [15], cited from earlier work. An excerpt: This is surprising, as hLF usually exerts antimicrobial functions ([22][–][24]), as well as preventing virus attachment to target cells and/or inhibiting virus replication ([25][–][27]). hLF is produced largely by neutrophils, but also by primary epithelial cells, and it is naturally present in a vast majority of body fluids in concentrations of up to several mg/ml, where it protects epithelia from pathogens ([28][–][31]). […] In this study, we investigated the molecular mechanisms behind hLF-dependent infection. As a first step, we investigated the structural features whereby hLF mediates HAdV-C5 infection of human respiratory A549 cells. In total, we used three different types of lactoferrin, namely, hLF purified from human tear fluid (present in several mg/ml), a recombinant form of hLF produced in Aspergillus with a human amino acid backbone but with a high-mannose glycosylation pattern ... || Utilization of hLF/hLfcin by species C HAdVs could also account for the frequent and persistent infections of species C HAdVs in tonsil T lymphocytes in young children ([56]). […] Taken together, our results highlight the ingenuity of HAdVs and explain how they may ensure efficient infection in a very hos ...

Where [6] appears, read: association rate constant, analyte hLF, SPR, HBS-EP+ pH 7.4, 25°C, average from three independent measurements.
Where [7] appears, read: dissociation rate constant, analyte hLF, SPR, HBS-EP+ pH 7.4, 25°C, average from three independent measurements.

Here are results for 2 molecules from paper PMC7343212, “Lactoferrin-Hexon Interactions Mediate CAR-Independent Adenovirus Infection of Human Respiratory Cells” (Journal of Virology, 2020).

Entries after “also recorded” stand apart in the source; their conditions may differ.

As a reminder, the Kd is the equilibrium constant for the complex coming apart. Low values mean tighter binding, high ones weaker binding.

T1 sequence (P04133 2-952 limits assumed): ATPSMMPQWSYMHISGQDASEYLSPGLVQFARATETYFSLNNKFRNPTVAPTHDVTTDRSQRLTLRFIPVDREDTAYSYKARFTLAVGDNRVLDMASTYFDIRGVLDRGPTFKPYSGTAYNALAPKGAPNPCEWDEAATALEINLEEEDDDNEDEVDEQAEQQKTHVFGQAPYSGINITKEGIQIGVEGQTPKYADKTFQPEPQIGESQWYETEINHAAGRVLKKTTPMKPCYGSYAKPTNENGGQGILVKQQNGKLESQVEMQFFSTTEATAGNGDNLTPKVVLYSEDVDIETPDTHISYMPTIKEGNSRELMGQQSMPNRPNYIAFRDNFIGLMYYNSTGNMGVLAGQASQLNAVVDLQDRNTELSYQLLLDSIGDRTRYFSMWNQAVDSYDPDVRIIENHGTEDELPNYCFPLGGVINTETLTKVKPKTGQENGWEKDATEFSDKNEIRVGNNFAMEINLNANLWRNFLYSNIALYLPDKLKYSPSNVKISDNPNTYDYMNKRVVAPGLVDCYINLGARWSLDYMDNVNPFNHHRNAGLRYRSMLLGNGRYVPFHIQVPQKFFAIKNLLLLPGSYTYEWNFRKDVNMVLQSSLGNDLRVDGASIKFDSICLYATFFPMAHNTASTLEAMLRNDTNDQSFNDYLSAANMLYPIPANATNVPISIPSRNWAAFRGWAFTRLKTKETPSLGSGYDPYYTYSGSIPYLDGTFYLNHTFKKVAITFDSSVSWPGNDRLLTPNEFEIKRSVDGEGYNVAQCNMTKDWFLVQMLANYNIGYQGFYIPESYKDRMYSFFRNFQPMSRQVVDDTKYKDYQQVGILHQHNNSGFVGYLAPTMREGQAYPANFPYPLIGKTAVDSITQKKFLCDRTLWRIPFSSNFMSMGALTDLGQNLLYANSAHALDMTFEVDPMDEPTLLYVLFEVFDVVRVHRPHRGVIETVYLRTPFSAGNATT

B1: human lactoferrin (protein, UniProt P02788 20-710, looked up)
Lactotransferrin: GRRRSVQWCAVSQPEATKCFQWQRNMRKVRGPPVSCIKRDSPIQCIQAIAENRADAVTLDGGFIYEAGLAPYKLRPVAAEVYGTERQPRTHYYAVAVVKKGGSFQLNELQGLKSCHTGLRRTAGWNVPIGTLRPFLNWTGPPEPIEAAVARFFSASCVPGADKGQFPNLCRLCAGTGENKCAFSSQEPYFSYSGAFKCLRDGAGDVAFIRESTVFEDLSDEAERDEYELLCPDNTRKPVDKFKDCHLARVPSHAVVARSVNGKEDAIWNLLRQAQEKFGKDKSPKFQLFGSPSGQKDLLFKDSAIGFSRVPPRIDSGLYLGSGYFTAIQNLRKSEEEVAARRARVVWCAVGEQELRKCNQWSGLSEGSVTCSSASTTEDCIALVLKGEADAMSLDGGYVYTAGKCGLVPVLAENYKSQQSSDPDPNCVDRPVEGYLAVAVVRRSDTSLTWNSVKGKKSCHTAVDRTAGWNIPMGLLFNQTGSCKFDEYFSQSCAPGSDPRSNLCALCIGDEQGENKCVPNSNERYYGYTGAFRCLAENAGDVAFVKDVTVLQNTDGNNNEAWAKDLKLADFALLCLDGKRKPVTEARSCHLAMAPNHAVVSRMDKVERLKQVLLHQQAKFGRNGSDCPDKFCLFQSETKNLLFNDNTECLARLHGKTTYEKYLGPQYVAGITNLKKCSTSPLLEACEFLRK
notes: Human LF purified from human tear fluid by size exclusion chromatography
With B1, the Kd in assay [1] (SPR Biacore T200, HAdV-C5 hexon amine-coupled on CM5 chip (900 to 1,100 RU), analyte hLF, 2-fold series 8 nM to 2 μM, HBS-EP+ pH 7.4, 25°C, average from three independent measurements) came out at 29 ± 3.6 nM; in assay [2] (SPR Biacore T200, HAdV-B35 hexon on CM5 chip, analyte hLF, 2-fold series 8 nM to 2 μM, HBS-EP+ pH 7.4, 25°C, average from three independent measurements) it was 151 ± 14 nM; in assay [3] (SPR Biacore T200, HAdV-A31 hexon on CM5 chip, 2-fold series 8 nM to 2 μM) it was 827 ± 55 nM. For the same molecule, the “affinity ratio, HAdV-C5 hexon stronger than HAdV-B35 hexon” value in assay [1] (SPR, 25°C, pH 7.4, HAdV-C5 versus HAdV-B35 hexon) is recorded as “about 5 fold”. Moreover, the ka in assay [1] (setting [6]) turned out to be 53000 ± 2600 M⁻¹ s⁻¹; in assay [2] (setting [6]), 25000 ± 2500 M⁻¹ s⁻¹; in assay [3] (association rate constant, SPR) it was 12000 ± 1100 M⁻¹ s⁻¹. Moreover, the kd in assay [1] (setting [7]) was found to be 0.00154 ± 0.00024 s⁻¹; in assay [2] (setting [7]) it was 0.00354 ± 0.00014 s⁻¹; in assay [3] (dissociation rate constant, SPR), 0.01011 ± 0.00024 s⁻¹. The “affinity ratio, HAdV-B35 hexon stronger than HAdV-A31 hexon” value in assay [2] (SPR, 25°C, pH 7.4, HAdV-B35 versus HAdV-A31 hexon) amounted to 5 fold. For the same molecule, in assay [4] (LF 1 mg/ml preincubated with HAdV-C5_GFP, GFP imaging after 44 h, mean from 3 to 5 independent experiments (Fig. 1A)), the “increase of HAdV-C5_GFP transduction of A549 cells by LF” value is listed as 4 fold. In addition, in assay [4] (high, nonphysiological concentrations, data not shown, cell line not stated, also ref [15]), the “prevention of transduction at high concentration” value was “able to prevent transduction”. Further, the “effect on HAdV-C5 infection of CAR-negative T cells” value in assay [5] (CAR-negative T cells) is given as “facilitates HAdV-C5 infection”. The “effect on species C HAdV infection” value in assay [5] was “efficiently increases species C HAdV infection; also recorded: all species C HAdVs infect epithelial and T cells more efficiently”.

B2: rhLF: recombinant hLF produced in Aspergillus awamori, human amino acid backbone, high-mannose glycosylation pattern (protein, UniProt P02788 20-710, looked up)
Lactotransferrin: GRRRSVQWCAVSQPEATKCFQWQRNMRKVRGPPVSCIKRDSPIQCIQAIAENRADAVTLDGGFIYEAGLAPYKLRPVAAEVYGTERQPRTHYYAVAVVKKGGSFQLNELQGLKSCHTGLRRTAGWNVPIGTLRPFLNWTGPPEPIEAAVARFFSASCVPGADKGQFPNLCRLCAGTGENKCAFSSQEPYFSYSGAFKCLRDGAGDVAFIRESTVFEDLSDEAERDEYELLCPDNTRKPVDKFKDCHLARVPSHAVVARSVNGKEDAIWNLLRQAQEKFGKDKSPKFQLFGSPSGQKDLLFKDSAIGFSRVPPRIDSGLYLGSGYFTAIQNLRKSEEEVAARRARVVWCAVGEQELRKCNQWSGLSEGSVTCSSASTTEDCIALVLKGEADAMSLDGGYVYTAGKCGLVPVLAENYKSQQSSDPDPNCVDRPVEGYLAVAVVRRSDTSLTWNSVKGKKSCHTAVDRTAGWNIPMGLLFNQTGSCKFDEYFSQSCAPGSDPRSNLCALCIGDEQGENKCVPNSNERYYGYTGAFRCLAENAGDVAFVKDVTVLQNTDGNNNEAWAKDLKLADFALLCLDGKRKPVTEARSCHLAMAPNHAVVSRMDKVERLKQVLLHQQAKFGRNGSDCPDKFCLFQSETKNLLFNDNTECLARLHGKTTYEKYLGPQYVAGITNLKKCSTSPLLEACEFLRK
modifications: recombinant, expressed in Aspergillus awamori
For the molecule B2, the “effect of LF on HAdV-C5_GFP transduction of A549 cells (in words)” value in assay [4] (LF 1 mg/ml preincubated with HAdV-C5_GFP, GFP imaging after 44 h (Fig. 1A)) is reported as “Neither bLF nor rhLF affected HAdV-C5_GFP transduction”.
